Source: US20240009242A1 (STARKAGE THERAPEUTICS, published 2024)
Numbering of substitutions follows the chain as printed. Numbers in names are those of the source. Each block holds one binder with its values, some of them ahead of it. Ends that are not written are not given here.

What was measured:
[1] = target: T1, human DEP1 on the surface of fibroblasts (human) (UniProt Q12913); test: flow cytometry on IPF human lung fibroblasts; 0.5 µg per test; anti-6xHis tag PE secondary
T1 sequence: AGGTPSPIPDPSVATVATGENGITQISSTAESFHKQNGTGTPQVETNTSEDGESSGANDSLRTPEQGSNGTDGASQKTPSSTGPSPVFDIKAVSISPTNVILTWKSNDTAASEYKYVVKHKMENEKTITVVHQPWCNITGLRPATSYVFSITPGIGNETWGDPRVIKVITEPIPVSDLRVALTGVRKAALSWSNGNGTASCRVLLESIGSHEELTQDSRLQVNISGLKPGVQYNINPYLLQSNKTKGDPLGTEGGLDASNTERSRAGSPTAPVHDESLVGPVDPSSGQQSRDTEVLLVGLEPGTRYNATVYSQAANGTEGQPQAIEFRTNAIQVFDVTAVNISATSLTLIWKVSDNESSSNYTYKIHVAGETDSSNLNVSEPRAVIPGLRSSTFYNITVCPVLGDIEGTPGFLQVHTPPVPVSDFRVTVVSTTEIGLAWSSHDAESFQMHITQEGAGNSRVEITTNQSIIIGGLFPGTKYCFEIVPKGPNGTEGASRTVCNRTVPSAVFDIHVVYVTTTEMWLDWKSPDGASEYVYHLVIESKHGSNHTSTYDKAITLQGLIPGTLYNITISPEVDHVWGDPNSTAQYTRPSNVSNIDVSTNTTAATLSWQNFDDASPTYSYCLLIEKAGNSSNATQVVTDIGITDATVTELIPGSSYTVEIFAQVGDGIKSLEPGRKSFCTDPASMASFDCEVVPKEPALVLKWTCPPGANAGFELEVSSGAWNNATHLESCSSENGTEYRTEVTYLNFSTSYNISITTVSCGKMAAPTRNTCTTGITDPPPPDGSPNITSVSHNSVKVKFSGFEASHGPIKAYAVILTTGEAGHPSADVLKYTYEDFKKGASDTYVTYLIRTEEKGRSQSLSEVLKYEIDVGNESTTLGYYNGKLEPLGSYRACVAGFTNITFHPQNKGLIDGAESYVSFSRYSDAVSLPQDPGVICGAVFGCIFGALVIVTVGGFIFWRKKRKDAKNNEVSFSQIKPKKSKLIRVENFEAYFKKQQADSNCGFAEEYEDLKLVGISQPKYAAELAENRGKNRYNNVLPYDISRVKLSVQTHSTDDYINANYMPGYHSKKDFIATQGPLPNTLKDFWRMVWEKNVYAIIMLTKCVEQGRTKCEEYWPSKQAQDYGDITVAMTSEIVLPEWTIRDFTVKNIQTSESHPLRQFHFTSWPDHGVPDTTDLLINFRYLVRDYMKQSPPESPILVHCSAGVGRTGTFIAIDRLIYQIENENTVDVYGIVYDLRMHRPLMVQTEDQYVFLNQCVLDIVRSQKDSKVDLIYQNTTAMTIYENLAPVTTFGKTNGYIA

[2] = target: T1, human DEP1 on the surface of fibroblasts (human); test: flow cytometry on Wi-38 fibroblasts (PDL<20); 0.5 µg per test; anti-6xHis tag PE secondary
[3] = target: T1, human DEP1 on the surface of fibroblasts (human); test: flow cytometry on COPD human lung fibroblasts; 0.5 µg per test; anti-6xHis tag PE secondary
[4] = target: T1, human DEP1 on the surface of fibroblasts (human); test: flow cytometry on untreated GM21808 fibroblasts; 0.5 µg per test; anti-6xHis tag PE secondary
[5] = target: T1, human DEP1 on the surface of fibroblasts (human); test: flow cytometry on NHLF (normal human lung fibroblasts); 0.5 µg per test; anti-6xHis tag PE secondary
[6] = target: T1, human DEP1 on the surface of fibroblasts (human); test: flow cytometry on GM21808 fibroblasts treated with etoposide; 0.5 µg per test; anti-6xHis tag PE secondary
hDEP1 Peptide #4 = target: T2, hDEP1 Peptide #4 (human, also: conjugated to BSA); test: ELISA, soluble scFv produced in microtiter plate
T2 construct: also called hDEP1 Peptide #4/BSA
T2 peptide: ADVLKYTYEDFKKGASDT
Procedure: 96 isolated clones from the second, third and fourth rounds of panning were hand-picked and used to produce the respective soluble scFv in microtiter plate. Each clone was then tested in ELISA against hDEP1 Peptide #4/BSA.

[7] = target: human DPP4 on the surface of fibroblasts (human) (UniProt P27487); test: flow cytometry on IPF human lung fibroblasts; 0.5 µg per test; anti-6xHis tag PE secondary
[8] = target: human DPP4 on the surface of fibroblasts (human) (UniProt P27487); test: flow cytometry on Wi-38 fibroblasts (PDL<20); 0.5 µg per test; anti-6xHis tag PE secondary
[9] = target: human DPP4 on the surface of fibroblasts (human) (UniProt P27487); test: flow cytometry on COPD human lung fibroblasts; 0.5 µg per test; anti-6xHis tag PE secondary
[10] = target: human DPP4 on the surface of fibroblasts (human) (UniProt P27487); test: flow cytometry on untreated GM21808 fibroblasts; 0.5 µg per test; anti-6xHis tag PE secondary
[11] = target: human DPP4 on the surface of fibroblasts (human) (UniProt P27487); test: flow cytometry on NHLF (normal human lung fibroblasts); 0.5 µg per test; anti-6xHis tag PE secondary
[12] = target: human DPP4 on the surface of fibroblasts (human) (UniProt P27487); test: flow cytometry on GM21808 fibroblasts treated with etoposide; 0.5 µg per test; anti-6xHis tag PE secondary

Chain of human DPP4 on the surface of fibroblasts (human) (P27487 whole entry): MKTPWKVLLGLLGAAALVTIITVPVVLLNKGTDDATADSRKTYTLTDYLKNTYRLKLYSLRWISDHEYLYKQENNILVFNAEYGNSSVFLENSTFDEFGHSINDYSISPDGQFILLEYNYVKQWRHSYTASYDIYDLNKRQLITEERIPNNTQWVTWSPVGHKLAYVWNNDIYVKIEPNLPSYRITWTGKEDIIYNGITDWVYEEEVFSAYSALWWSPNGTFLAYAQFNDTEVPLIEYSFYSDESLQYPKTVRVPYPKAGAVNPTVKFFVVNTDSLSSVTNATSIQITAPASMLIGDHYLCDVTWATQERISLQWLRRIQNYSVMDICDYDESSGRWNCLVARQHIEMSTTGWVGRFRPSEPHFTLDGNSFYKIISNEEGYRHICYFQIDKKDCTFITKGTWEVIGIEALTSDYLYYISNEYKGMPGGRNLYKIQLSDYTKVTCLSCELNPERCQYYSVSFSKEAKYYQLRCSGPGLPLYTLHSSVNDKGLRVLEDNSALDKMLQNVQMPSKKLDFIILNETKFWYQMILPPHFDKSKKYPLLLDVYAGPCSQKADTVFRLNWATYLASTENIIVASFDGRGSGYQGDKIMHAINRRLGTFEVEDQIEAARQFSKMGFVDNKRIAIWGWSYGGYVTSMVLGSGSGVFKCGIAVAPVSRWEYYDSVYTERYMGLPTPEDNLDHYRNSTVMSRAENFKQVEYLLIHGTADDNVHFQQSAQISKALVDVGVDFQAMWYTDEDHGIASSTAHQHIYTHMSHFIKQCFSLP

B1: 5738-10-R3A-D5 (scFv, part only; not given: linker and His-Flag tag, V domains shown, not shown: another chain or arm of the molecule; small tags and cut ends)
VH: EVQLQQSGAELAKPGSSVKISCKASGYTFTSYYISWIKQTTGQGLEYIGYINTGSGGTNYNEKFKGKATLTVDKSSSTAFMQLSSLTPDDSAVYYCARDKWVDWGQGVMVTVSS
VL: DILMTQSPSSMSVSLGDTVTITCRASQDVGIYVNWFQQKPGKPPRRMIYRATNLADGVPSRFSGSRSGSNYSLTIRSLESEDVADYHCLQYDEWPYTFGAGTKLELK
MFI [1]: 3500 | percentage of positive cells [1]: 22.3% | MFI [2]: 1040 | percentage of positive cells [2]: 4.81% | MFI [3]: 1440 | percentage of positive cells [3]: 0.06% | MFI [4]: 632 | percentage of positive cells [4]: 0.07% | MFI [5]: 1250 | percentage of positive cells [5]: 0.08% | MFI [6]: 1380 | percentage of positive cells [6]: 6.57%

B3: 5738-10-R4A-E7 (scFv, V domains shown)
VH: QVQLKQSGVELAKPGSSVKISCKASGYTFTSDSISWIKQTTGQGLEYIGYIHPGSGVTNYNEKFKGKATLTVDKSSSTAFMQLSSLTPDDSAIYYCARYFDYWGQGVMVTVSS
VL: B1 VL with K39I, P43S, M47L, N70D, R76A, W94F, Y96P, A100S, L106I
notes: anti-hDEP1 scFv, rat 10 library, format VH/VL-6xHis-Flag
binding result (hDEP1 Peptide #4): binds

B4: 5738-10-R4A-F12 (scFv, V domains shown)
VH: B3 VH with Q1E, K5Q
VL: B1 VL with P43S, Y49H, N70D, R76S, W94Y, Y96P, A100S, L106I
notes: as for B3
binding result (hDEP1 Peptide #4): binds

B5: 5738-10-R4A-G4 (scFv, V domains shown)
VH: B3 VH with Q1E, K5Q, K65R
VL: B1 VL with L3V, P43S, N70D, R76A, W94F, Y96P, A100S, L106I
notes: as for B3
binding result (hDEP1 Peptide #4): binds

B8: 5826-13-R3A-D5 (scFv, part only; not given: linker and His-Flag tag, V domains shown, not shown: another chain or arm of the molecule; small tags and cut ends)
VH: EVKLVESGPGLVKPSQSLSLTCSVTGYFITGNYLAWIRKFPGNKMEWIGHIKSSGTTTYNPSLKSRVSITRDTSKNQFFLQLNSVTSEDTATYYCARHGHYVMDVWGQGASVTVSS
VL: DIVLTQSPVLAVSLGQRATISCRASQSVSTSTYNFMHWYQQKPGQQPRLLIYDASHLASSVPARFSGSGSGTDFTLTINPVQADDIATYYCQQSRELPLTFGSGTKLEIK
MFI [7]: 11500 | percentage of positive cells [7]: 62.7% | MFI [8]: 581 | percentage of positive cells [8]: 0% | MFI [9]: 4060 | percentage of positive cells [9]: 10.7% | MFI [10]: 1210 | percentage of positive cells [10]: 5.02% | MFI [11]: 1740 | percentage of positive cells [11]: 2.02% | MFI [12]: 2730 | percentage of positive cells [12]: 16.1%

B9: 5738-13-R2A-H4 (scFv, part only; not given: linker and His-Flag tag, V domains shown, not shown: another chain or arm of the molecule; small tags and cut ends)
VH: EVKLVESGGGLVQPGRSLKLSCAASGFTFSNYYMAWVRQAPTKGLEWVAYITNGFGSTYYRDSVKGRFTISRDNAKSTLYLQMDSLRSEDTATYYCSTVPLGAFVSWGQGTLVTVSS
VL: DIQMTQTPHSLSASLGETVSIECLASEGISNYLAWYQQKPGKSPQLLISYANPLHDGVPSRFSGSGSGTQFSLKIRNMQPEDEGVYYCQQGYKFPYTFGAGTKLELT
MFI [1]: 5020 | percentage of positive cells [1]: 40% | MFI [2]: 891 | percentage of positive cells [2]: 4.88% | MFI [3]: 1480 | percentage of positive cells [3]: 0.39% | MFI [4]: 980 | percentage of positive cells [4]: 2.5% | MFI [5]: 1310 | percentage of positive cells [5]: 0.58% | MFI [6]: 2210 | percentage of positive cells [6]: 12.5%

Further lines, results first:

binding result (hDEP1 Peptide #4): binds
B2: 5738-10-R4A-G11 (scFv, V domains shown)
VH: QVQLQQPRAELAKPGSSVKISCKASGYTFTNYSISWIKQTTGQGLEYIGYIYPGSGDTNYNEKFKGKATLTVDKSSSTAFMQLSSLTPDDSAVYYCARYFDHWGQGTLVTVSS
VL: B1 VL with P43S, N53T, N70D, R76S, W94Y, Y96P, A100S, L106I
notes: as for B3

binding result (hDEP1 Peptide #4): binds
B6: 5738-10-R4A-E9 (scFv, V domains shown)
VH: B3 VH with V9A, D32Y, S33Y
VL: B1 VL with L15Q, P43S, Y49H, N70D, R76T, W94Y, Y96P, A100S, K103N, L106I
notes: as for B3

MFI [7]: 16700 | percentage of positive cells [7]: 79.5% | MFI [8]: 574 | percentage of positive cells [8]: 0.01% | MFI [9]: 10100 | percentage of positive cells [9]: 66.5% | MFI [10]: 1940 | percentage of positive cells [10]: 8.13% | MFI [11]: 3650 | percentage of positive cells [11]: 11% | MFI [12]: 10900 | percentage of positive cells [12]: 61.9%
B7: 5826-13-R4A-H5 (scFv, part only; not given: linker and His-Flag tag, V domains shown, not shown: another chain or arm of the molecule; large carriers; small tags and cut ends)
VH: EVQLQQSGAGLTKPGGSVKISCKVSGYTFTTYDIGWLKQRPGQALEWIGSINPGGGGTGYNEKFKGKATLTVDKSSSTAFMQLSSLTPEDTAVYYCARPLRRVLDYWGQGVLVTVSS
VL: DIQLTQSPSSLPASLGERVTISCRASQGISNKLNWYQQKPDGTIKPLIYYTSNLQSGVPSRFSGSGSGTDYSLTISSLEPEDFAMYYCQQDASFPPTFGGGTKLELK
